Measurements published in the supplement of paper PMC9112550, “Optimization of the antimicrobial peptide Bac7 by deep mutational scanning” (BMC Biology, 2022).

Each sequence was assayed on Escherichia coli TOP10 (assay: shrunken log2 fold change of peptide-encoding DNA abundance (4.5 h post-induction vs induction); higher = less antimicrobial activity (less host growth inhibition)). Details: time post-induction: 4.5 h; library: site-saturation at positions 5, 18, 19, 20.
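Note: peptides expressed intracellularly from a pBAD plasmid library in pooled LB shake-flask culture, induced with 0.3% L-arabinose, DNA abundance read by NGS, three biological replicates, DESeq2 with apeglm shrinkage.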

Sequence	shrunken log2 fold change
RRIRWRPPRLPRPRPRPPFEPRP	0.765
RRIRARPPRLPRPRPRPGMQPRP	0.094
RRIRPRPPRLPRPRPRPQWMPRP	0.00643
RRIRYRPPRLPRPRPRPPAQPRP	0.23
RRIRTRPPRLPRPRPRPRSVPRP	-0.272
RRIRLRPPRLPRPRPRPNQRPRP	0.00956
RRIRDRPPRLPRPRPRPYIIPRP	-0.758
RRIRDRPPRLPRPRPRPNNCPRP	-0.466
RRIRLRPPRLPRPRPRPMGEPRP	0.136
RRIRYRPPRLPRPRPRPQYQPRP	-0.103
RRIRPRPPRLPRPRPRPVWPPRP	0.341
RRIRFRPPRLPRPRPRPEREPRP	0.292
RRIRKRPPRLPRPRPRPIMFPRP	-0.21
RRIRPRPPRLPRPRPRPTDSPRP	-0.245
RRIRYRPPRLPRPRPRPYAIPRP	-0.00088
RRIRVRPPRLPRPRPRPHDFPRP	-0.00674
RRIRSRPPRLPRPRPRPMHKPRP	-0.112
RRIRERPPRLPRPRPRPASQPRP	-0.0177
RRIRPRPPRLPRPRPRPTPSPRP	0.312
RRIRIRPPRLPRPRPRPSHGPRP	0.09

Sequence	shrunken log2 fold change
RRIRQRPPRLPRPRPRPTRAPRP	0.647
RRIRWRPPRLPRPRPRPIVLPRP	-0.628
RRIRYRPPRLPRPRPRPLKSPRP	-0.365
RRIRTRPPRLPRPRPRPSQAPRP	0.0983
RRIRLRPPRLPRPRPRPDLWPRP	0.774
RRIRGRPPRLPRPRPRPFWVPRP	0.15
RRIRGRPPRLPRPRPRPYTYPRP	-0.0842
RRIRRRPPRLPRPRPRPARDPRP	0.185
RRIRGRPPRLPRPRPRPRMSPRP	0.28
RRIRNRPPRLPRPRPRPIGKPRP	-0.0902
RRIRNRPPRLPRPRPRPRAPPRP	0.972
RRIRVRPPRLPRPRPRPYEMPRP	-0.311
RRIRFRPPRLPRPRPRPTQPPRP	0.202
RRIRLRPPRLPRPRPRPEPKPRP	0.238
RRIRNRPPRLPRPRPRPKHIPRP	-0.438
RRIRNRPPRLPRPRPRPFREPRP	-0.0373
RRIRPRPPRLPRPRPRPDYRPRP	-0.321
RRIRDRPPRLPRPRPRPKFKPRP	-0.0689
RRIRDRPPRLPRPRPRPKQDPRP	0.172
RRIRIRPPRLPRPRPRPEMMPRP	0.0516

Sequence	shrunken log2 fold change
RRIRVRPPRLPRPRPRPEHKPRP	-0.0815
RRIRTRPPRLPRPRPRPSLFPRP	-0.248
RRIRKRPPRLPRPRPRPNRWPRP	0.398
RRIRIRPPRLPRPRPRPIIGPRP	-0.13
RRIRDRPPRLPRPRPRPKESPRP	0.277
RRIRSRPPRLPRPRPRPFYPPRP	-0.259
RRIRYRPPRLPRPRPRPTDIPRP	-0.031
RRIRQRPPRLPRPRPRPQLKPRP	-0.0311
RRIRVRPPRLPRPRPRPRRGPRP	0.579
RRIRDRPPRLPRPRPRPGMDPRP	0.216
RRIRRRPPRLPRPRPRPPIKPRP	0.14
RRIRGRPPRLPRPRPRPREQPRP	0.857
RRIRWRPPRLPRPRPRPRGHPRP	0.404
RRIRDRPPRLPRPRPRPYINPRP	-0.108
RRIRARPPRLPRPRPRPRCVPRP	0.347
RRIRVRPPRLPRPRPRPTTDPRP	-0.0625
RRIRSRPPRLPRPRPRPCFEPRP	-0.0192
RRIRRRPPRLPRPRPRPTSGPRP	0.252
RRIRWRPPRLPRPRPRPITAPRP	0.0334
RRIRPRPPRLPRPRPRPNHPPRP	-0.404
